The results in this text go back to patent US20180344813A1, “ENGINEERED POLYPEPTIDES HAVING ENHANCED DURATION OF ACTION WITH REDUCED IMMUNOGENICITY” (priority 2016, published 2018).

Like-named read-outs stand apart in the source and are kept apart here.

Data set [1] concerns IgG molecules present in normal human sera. The data set is described as follows: Serum response analysis: ELISA of human serum IgG binding to albumin binding polypeptides. The method, then: Each serum sample was tested as a singlet.
On the technique in general: In an ELISA, binding on a coated surface is turned into a signal by an enzyme label.

Data set [2] deals with CD3+ CD4+ T cells.
Data set [3] relates to renal cortical tubular epithelial cells. Put plainly: Kidney vacuolization histopathology in C57BL6 female mice. Type of data set: in vivo, mouse. The method, then: With some drugs, such as some pegylated proteins, undesirable vacuoles can form in cytoplasm of epithelial cells lining the proximal convoluted tubules, which is an undesirable toxicity measure. […] C57BL6 female mice (n=2 cages, 3 mice/cage) were weighed daily 3 hours prior to lights out. Immediately after weighing, on days 0-6 mice were injected subcutaneously with test compound. Mice were sacrificed on day 7 and kidneys submitted for histopathology. […] A positive control compound known to cause vacuole formation was scored as 3.

Data set [4] relates to NIH/Swiss mice. The data set is described as follows: OGTT DOA (oral glucose tolerance test duration of action). Type of data set: in vivo, mouse. Particulars: 25 nmol/Kg, OGTT at 24 hours post drug administration, 30 minutes post gavage; 4-hr fasted NIH/Swiss mice.
Experimental: For example, duration can be performed using an oral glucose tolerance test (OGTT) in which the drug is administered to the subject at a desired time point before the glucose is administered orally(to measure drug duration of action; OGTT DOA) and glucose blood levels are measured (e.g. readily done in mice).
Drug was administered to 4-hr fasted NIH/Swiss mice. […] Blood glucose was measured with a OneTouch® Ultra® (LifeScan, Inc., a Johnson & Johnson Company, Milpitas, Calif.). *p<0.05 vs. vehicle control; ANOVA, Dunnett's test. Glucose lowering as percent lowering compared to vehicle is given (negative value indicates lowering of glucose) at 30 minutes post gavage.

Regarding `CC[C@H](C)[C@H](NC(=O)[C@H](Cc1c[nH]cn1)NC(=O)[C@H](CC(C)C)NC(=O)[C@H](CCCCN)NC(=O)[C@H](CC(C)C)NC(=O)[C@H](C)NC(=O)[C@H](CCC(=O)O)NC(=O)[C@@H](NC(=O)CNC(=O)[C@H](CCC(=O)O)NC(=O)[C@@H](NC(=O)[C@@H](NC(=O)[C@H](CCCCN)NC(=O)[C@H](C)NC(=O)[C@H](CCCCN)NC(=O)[C@H](CC(N)=O)NC(=O)[C@@H](NC(=O)[C@H](CC(C)C)NC(=O)[C@H](CCCNC(=N)N)NC(=O)[C@H](CCCCN)NC(=O)[C@H](Cc1ccc(O)cc1)NC(=O)[C@H](Cc1ccccc1)NC(=O)[C@H](CC(=O)O)NC(=O)[C@H](CO)NC(=O)[C@@H](NC(=O)CNC(=O)[C@H](Cc1ccc(O)cc1)NC(=O)[C@H](CCCCN)NC(=O)[C@H](CC(=O)O)NC(=O)[C@H](CC(C)C)NC(=O)[C@H](CCC(=O)O)NC(=O)[C@H](CCCNC(=N)N)NC(=O)[C@H](CC(N)=O)NC(=O)[C@H](C)NC(=O)[C@H](CC(C)C)NC(=O)[C@@H](NC(=O)[C@H](CCCCN)NC(=O)[C@H](C)NC(=O)[C@H](CCC(=O)O)NC(=O)[C@H](C)NC(=O)[C@H](CC(C)C)NC(=O)[C@H](CO)NC(=O)[C@H](CO)NC(=O)CN)C(C)C)C(C)C)[C@@H](C)CC)[C@@H](C)O)C(C)C)C(C)C)C(=O)N[C@@H](CC(C)C)C(=O)N[C@@H](C)C(=O)N[C@@H](C)C(=O)N[C@@H](CC(C)C)C(=O)N1CCC[C@H]1C(=O)O` [PEP06923, reference compound], the “reactivity with serum IgG (average OD-value and percentage of serum with IgG binding)” value in data set [1] (126 positive human sera, diluted 50 times) is recorded as “highest”. As to `CC[C@H](C)[C@H](NC(=O)[C@H](C)NC(=O)[C@H](CC(=O)O)NC(=O)[C@H](CCCCN)NC(=O)[C@H](CC(C)C)NC(=O)[C@H](C)NC(=O)[C@H](CCC(=O)O)NC(=O)[C@@H](NC(=O)CNC(=O)[C@H](CCC(=O)O)NC(=O)[C@@H](NC(=O)[C@@H](NC(=O)[C@H](CCCCN)NC(=O)[C@H](C)NC(=O)[C@H](CCCCN)NC(=O)[C@H](CC(=O)O)NC(=O)[C@@H](NC(=O)[C@H](CC(C)C)NC(=O)[C@H](CCCNC(=N)N)NC(=O)[C@H](CCCCN)NC(=O)[C@H](Cc1ccc(O)cc1)NC(=O)[C@H](Cc1ccccc1)NC(=O)[C@H](CC(=O)O)NC(=O)[C@H](CO)NC(=O)[C@@H](NC(=O)CNC(=O)[C@H](Cc1ccc(O)cc1)NC(=O)[C@H](CCCCN)NC(=O)[C@H](CC(=O)O)NC(=O)[C@H](CC(C)C)NC(=O)[C@H](CCC(=O)O)NC(=O)[C@H](C)NC(=O)[C@H](CC(N)=O)NC(=O)[C@H](C)NC(=O)[C@H](C)NC(=O)[C@H](CCC(=O)O)NC(=O)[C@H](CCCCN)NC(=O)[C@H](C)NC(=O)[C@H](CO)NC(=O)[C@H](C)NC(=O)[C@H](CC(C)C)NC(=O)[C@H](CO)NC(=O)[C@H](CO)NC(=O)CN)C(C)C)[C@@H](C)CC)[C@@H](C)O)C(C)C)C(C)C)C(=O)N[C@@H](CC(C)C)C(=O)N[C@@H](C)C(=O)N[C@@H](C)C(=O)N[C@@H](CC(C)C)C(=O)N1CCC[C@H]1C(=O)O` [PEP07844], in data set [1], the “reactivity with serum IgG (average OD-value and percentage of serum with IgG binding)” value is recorded as “highest”. On the same count and under the same terms, in the case of `CC[C@H](C)[C@H](NC(=O)[C@H](CCC(=O)O)NC(=O)[C@H](CC(=O)O)NC(=O)[C@@H](NC(=O)[C@H](CC(C)C)NC(=O)[C@H](C)NC(=O)[C@H](CCCCN)NC(=O)[C@@H](NC(=O)CNC(=O)[C@H](CCC(=O)O)NC(=O)[C@@H](NC(=O)[C@@H](NC(=O)[C@H](CCCCN)NC(=O)[C@H](C)NC(=O)[C@H](CC(N)=O)NC(=O)[C@H](CC(N)=O)NC(=O)[C@@H](NC(=O)[C@H](CC(C)C)NC(=O)[C@H](CC(N)=O)NC(=O)[C@H](CCCCN)NC(=O)[C@H](Cc1ccc(O)cc1)NC(=O)[C@H](Cc1ccc(O)cc1)NC(=O)[C@H](CC(=O)O)NC(=O)[C@H](CO)NC(=O)[C@@H](NC(=O)CNC(=O)[C@H](Cc1ccc(O)cc1)NC(=O)[C@H](CCCCN)NC(=O)[C@H](CC(=O)O)NC(=O)[C@H](CC(C)C)NC(=O)[C@H](CCC(=O)O)NC(=O)[C@H](CCCNC(=N)N)NC(=O)[C@H](CC(N)=O)NC(=O)[C@H](C)NC(=O)[C@H](CC(C)C)NC(=O)[C@@H](NC(=O)[C@H](CCCCN)NC(=O)[C@H](C)NC(=O)[C@H](CCC(=O)O)NC(=O)[C@H](C)NC(=O)[C@H](CC(C)C)NC(=O)CN)C(C)C)C(C)C)[C@@H](C)CC)[C@@H](C)O)C(C)C)C(C)C)[C@@H](C)CC)C(=O)N[C@@H](CC(C)C)C(=O)N[C@@H](C)C(=O)N[C@@H](C)C(=O)N[C@@H](CC(C)C)C(=O)N1CCC[C@H]1C(=O)O` [PEP07913, reference compound] it was “highest”. In the case of `CC[C@H](C)[C@H](NC(=O)[C@H](C)NC(=O)[C@H](CC(=O)O)NC(=O)[C@H](CCCCN)NC(=O)[C@H](CC(C)C)NC(=O)[C@H](C)NC(=O)[C@H](CCC(=O)O)NC(=O)[C@@H](NC(=O)CNC(=O)[C@H](CCC(=O)O)NC(=O)[C@@H](NC(=O)[C@@H](NC(=O)[C@H](CCCCN)NC(=O)[C@H](C)NC(=O)[C@H](CCCCN)NC(=O)[C@H](CC(=O)O)NC(=O)[C@@H](NC(=O)[C@H](CC(C)C)NC(=O)[C@H](CCCNC(=N)N)NC(=O)[C@H](CCCCN)NC(=O)[C@H](Cc1ccc(O)cc1)NC(=O)[C@H](Cc1ccccc1)NC(=O)[C@H](CC(=O)O)NC(=O)[C@H](CO)NC(=O)[C@@H](NC(=O)CNC(=O)[C@H](Cc1ccc(O)cc1)NC(=O)[C@H](CO)NC(=O)[C@H](CC(=O)O)NC(=O)[C@H](CC(C)C)NC(=O)[C@H](CCC(=O)O)NC(=O)[C@H](C)NC(=O)[C@H](CC(N)=O)NC(=O)[C@H](C)NC(=O)[C@H](C)NC(=O)[C@H](CCC(=O)O)NC(=O)[C@H](CCCCN)NC(=O)[C@H](C)NC(=O)[C@H](CCC(=O)O)NC(=O)[C@H](C)NC(=O)[C@H](CC(C)C)NC(=O)CN)C(C)C)[C@@H](C)CC)[C@@H](C)O)C(C)C)C(C)C)C(=O)N[C@@H](CC(C)C)C(=O)N[C@@H](C)C(=O)N[C@@H](C)C(=O)N[C@@H](CC(C)C)C(=O)N1CCC[C@H]1C(=O)O` [PEP07914], in data set [2], the immunogenicity definition result is reported as “non-immunogenic” and the “number of responding individuals” value turned out to be 2. Further, in data set [1], the “reactivity with serum IgG (average OD-value and percentage of serum with IgG binding)” value was “least reactivity”. Take `CC[C@H](C)[C@H](NC(=O)[C@H](C)NC(=O)[C@H](CC(=O)O)NC(=O)[C@H](CCCCN)NC(=O)[C@H](CC(C)C)NC(=O)[C@H](C)NC(=O)[C@H](CCC(=O)O)NC(=O)[C@@H](NC(=O)CNC(=O)[C@H](CCC(=O)O)NC(=O)[C@@H](NC(=O)[C@@H](NC(=O)[C@H](CCCCN)NC(=O)[C@H](C)NC(=O)[C@H](CCCCN)NC(=O)[C@H](CC(=O)O)NC(=O)[C@@H](NC(=O)[C@H](CC(C)C)NC(=O)[C@H](CCCNC(=N)N)NC(=O)[C@H](CCCCN)NC(=O)[C@H](Cc1ccc(O)cc1)NC(=O)[C@H](Cc1ccccc1)NC(=O)[C@H](CC(=O)O)NC(=O)[C@H](CO)NC(=O)[C@@H](NC(=O)CNC(=O)[C@H](Cc1ccc(O)cc1)NC(=O)[C@H](CSC1CC(=O)N(CCNC(=O)CN2CCN(CC(=O)O)CCN(CC(=O)O)CCN(CC(=O)O)CC2)C1=O)NC(=O)[C@H](CC(=O)O)NC(=O)[C@H](CC(C)C)NC(=O)[C@H](CCC(=O)O)NC(=O)[C@H](C)NC(=O)[C@H](CC(N)=O)NC(=O)[C@H](C)NC(=O)[C@H](C)NC(=O)[C@H](CCC(=O)O)NC(=O)[C@H](CCCCN)NC(=O)[C@H](C)NC(=O)[C@H](CO)NC(=O)[C@H](C)NC(=O)[C@H](CC(C)C)NC(=O)CN)C(C)C)[C@@H](C)CC)[C@@H](C)O)C(C)C)C(C)C)C(=O)N[C@@H](CC(C)C)C(=O)N[C@@H](C)C(=O)N[C@@H](C)C(=O)N[C@@H](CC(C)C)C(=O)N1CCC[C@H]1C(=O)O` (stereo partly shown) [PEP07968]: in data set [2], the immunogenicity definition result is recorded as “non-immunogenic” and the “number of responding individuals” value was determined as 1. The “reactivity with serum IgG (average OD-value and percentage of serum with IgG binding)” value in data set [1] is “least reactivity”. As to `CC[C@H](C)[C@H](NC(=O)[C@H](C)NC(=O)[C@H](CC(=O)O)NC(=O)[C@H](CCCCN)NC(=O)[C@H](CC(C)C)NC(=O)[C@H](C)NC(=O)[C@H](CCC(=O)O)NC(=O)[C@@H](NC(=O)CNC(=O)[C@H](CCC(=O)O)NC(=O)[C@@H](NC(=O)[C@@H](NC(=O)[C@H](CCCCN)NC(=O)[C@H](C)NC(=O)[C@H](CCCCN)NC(=O)[C@H](CC(=O)O)NC(=O)[C@@H](NC(=O)[C@H](CC(C)C)NC(=O)[C@H](CCCNC(=N)N)NC(=O)[C@H](CCCCN)NC(=O)[C@H](Cc1ccc(O)cc1)NC(=O)[C@H](Cc1ccccc1)NC(=O)[C@H](CC(=O)O)NC(=O)[C@H](CO)NC(=O)[C@@H](NC(=O)CNC(=O)[C@H](Cc1ccc(O)cc1)NC(=O)[C@H](CO)NC(=O)[C@H](CC(=O)O)NC(=O)[C@H](CC(C)C)NC(=O)[C@H](CCC(=O)O)NC(=O)[C@H](C)NC(=O)[C@H](CC(N)=O)NC(=O)[C@H](C)NC(=O)[C@H](C)NC(=O)[C@H](CCC(=O)O)NC(=O)[C@H](CCCCN)NC(=O)[C@H](C)NC(=O)[C@H](CCC(=O)O)NC(=O)[C@H](C)NC(=O)[C@H](CC(C)C)NC(=O)[C@H](CO)NC(=O)CN)C(C)C)[C@@H](C)CC)[C@@H](C)O)C(C)C)C(C)C)C(=O)N[C@@H](CC(C)C)C(=O)N[C@@H](C)C(=O)N[C@@H](C)C(=O)N[C@@H](CC(C)C)C(=O)N1CCC[C@H]1C(=O)O` [PEP07986], the “severity score for cytoplasmic vacuolation of renal cortical tubular epithelial cells” value in data set [3] (mouse, in vivo, sc) came to 0.

As to “HGEGTFTSDLSKQLEEEAVRLFIEWLKNGGPSSGAPPKSTGGGGSASGSLAEAKEAANAELDSYGVSDFYKRLIDKAKTVEGVEALKDAILAALP [Cmpd 6]”, the “Percent glucose lowering compared to vehicle” value in data set [4] was −22%.

“HGEGTFTSDLSKQLEEEAVRLFIEWLKQGGPSKEIISTGGGGSASGSLAEAKEAANAELDSYGVSDFYKRLIDKAKTVEGVEALKDAILAALP [Cmpd 5]”: the “severity score for cytoplasmic vacuolation of renal cortical tubular epithelial cells” value in data set [3] (subcutaneous on days 0-6, sacrificed on day 7, C57BL6 female mice) was 0.

As to “Keyhole Limpet Hemocyanin [KLH, reference compound]”, the “number of responding individuals” value in data set [2] was 51.
